# Patent US20250339531A1, “DUX4 POLYPEPTIDES AND NUCLEIC ACIDS FOR TREATING INFLAMMATORY AND AUTOIMMUNE CONDITIONS” (Fred Hutchinson Cancer Center, priority 2021, published 2025)
# B1: ENDOD1 (protein)
# chain: RLVGEEEAGFGECDKFFYAGTPPAGLAADSHVKICQRAEGAERFATLYSTRDRIPVYSAFRAPRPAPGGAEQRWLVEPQIDDPNSNLEEAINEAEAITSVNSLGSKQALNTDYLDSDYQRGQLYPFSLSSDVQVATFTLTNSAPMTQSFQERWYVNLHSLMDRALTPQCGSGEDLYILTGTVPSDYRVKDKVAVPEFVWLAACCAVPGGGWAMGFVKHTRDSDIIEDVMVKDLQKLLPFNPQLFQNNCGETEQDTEKMKKILEVVNQIQDEERMVQSQKSSSPLSSTRSKRSTLLPPEASEGSSSFLGKLMGFIATPFIKLFQLIYYLVVAILKNIVYFLWCVTKQVINGIESCLYRLGSATISYFMAIGEELVSIPWKVLKVVAKVIRALLRILCCLLKAICRVLSIPVRVLVDVATFPVYTMGAIPIVCKDIALGLGGTVSLLFDTAFGTLGGLFQVVFSVCKRIGYKVTFDNSGEL
# B2: STAT1 (protein)
# chain: SQWYELQQLDSKFLEQVHQLYDDSFPMEIRQYLAQWLEKQDWEHAANDVSFATIRFHDLLSQLDDQYSRFSLENNFLLQHNIRKSKRNLQDNFQEDPIQMSMIIYSCLKEERKILENAQRFNQAQSGNIQSTVMLDKQKELDSKVRNVKDKVMCIEHEIKSLEDLQDEYDFKCKTLQNREHETNGVAKSDQKQEQLLLKKMYLMLDNKRKEVVHKIIELLNVTELTQNALINDELVEWKRRQQSACIGGPPNACLDQLQNWFTIVAESLQQVRQQLKKLEELEQKYTYEHDPITKNKQVLWDRTFSLFQQLIQSSFVVERQPCMPTHPQRPLVLKTGVQFTVKLRLLVKLQELNYNLKVKVLFDKDVNERNTVKGFRKFNILGTHTKVMNMEESTNGSLAAEFRHLQLKEQKNAGTRTNEGPLIVTEELHSLSFETQLCQPGLVIDLETTSLPVVVISNVSQLPSGWASILWYNMLVAEPRNLSFFLTPPCARWAQLSEVLSWQFSSVTKRGLNVDQLNMLGEKLLGPNASPDGLIPWTRFCKENINDKNFPFWLWIESILELIKKHLLPLWNDGCIMGFISKERERALLKDQQPGTFLLRFSESSREGAITFTWVERSQNGGEPDFHAVEPYTKKELSAVTFPDIIRNYKVMAAENIPENPLKYLYPNIDKDHAFGKYYSRPKEAPEPMELDGPKGTGYIKTELISVSEVHPSRLQTTDNLLPMSPEEFDEVSRIVGSVEFDSMMNTV
# B3: CKAP4 (protein)
# chain: MPSAKQRGSKGGHGAASPSEKGAHPSGGADDVAKKPPPAPQQPPPPPAPHPQQHPQQHPQNQAHGKGGHRGGGGGGGKSSSSSSASAAAAAAAASSSASCSRRLGRALNFLFYLALVAAAAFSGWCVHHVLEEVQQVRRSHQDFSRQREELGQGLQGVEQKVQSLQATFGTFESILRSSQHKQDLTEKAVKQGESEVSRISEVLQKLQNEILKDLSDGIHVVKDARERDFTSLENTVEERLTELTKSINDNIAIFTEVQKRSQKEINDMKAKVASLEESEGNKQDLKALKEAVKEIQTSAKSREWDMEALRSTLQTMESDIYTEVRELVSLKQEQQAFKEAADTERLALQALTEKLLRSEESVSRLPEEIRRLEEELRQLKSDSHGPKEDGGFRHSEAFEALQQKSQGLDSRLQHVEDGVLSMQVASARQTESLESLLSKSQEHEQRLAALQGRLEGLGSSEADQDGLASTVRSLGETQLVLYGDVEELKRSVGELPSTVESLQKVQEQVHTLLSQDQAQAARLPPQDFLDRLSSLDNLKASVSQVEADLKMLRTAVDSLVAYSVKIETNENNLESAKGLLDDLRNDLDRLFVKVEKIHEKV
# B4: SERPINB3 (protein)
# chain: MNSLSEANTKFMFDLFQQFRKSKENNIFYSPISITSALGMVLLGAKDNTAQQIKKVLHFDQVTENTTGKAATYHVDRSGNVHHQFQKLLTEFNKSTDAYELKIANKLFGEKTYLFLQEYLDAIKKFYQTSVESVDFANAPEESRKKINSWVESQTNEKIKNLIPEGNIGSNTTLVLVNAIYFKGQWEKKFNKEDTKEEKFWPNKNTYKSIQMMRQYTSFHFASLEDVQAKVLEIPYKGKDLSMIVLLPNEIDGLQKLEEKLTAEKLMEWTSLQNMRETRVDLHLPRFKVEESYDLKDTLRTMGMVDIFNGDADLSGMTGSRGLVLSGVLHKAFVEVTEEGAEAAAATAVVGFGSSPTSTNEEFHCNHPFLFFIRQNKTNSILFYGRFSSP
# B5: USP11 (protein)
# chain: MAVAPRLFGGLCFRFRDQNPEVAVEGRLPISHSCVGCRRERTAMATVAANPAAAAAAVAAAAAVTEDREPQHEELPGLDSQWRQIENGESGRERPLRAGESWFLVEKHWYKQWEAYVQGGDQDSSTFPGCINNATLFQDEINWRLKEGLVEGEDYVLLPAAAWHYLVSWYGLEHGQPPIERKVIELPNIQKVEVYPVELLLVRHNDLGKSHTVQFSHTDSIGLVLRTARERFLVEPQEDTRLWAKNSEGSLDRLYDTHITVLDAALETGQLIIMETRKKDGTWPSAQLHVMNNNMSEEDEDFKGQPGICGLTNLGNTCFMNSALQCLSNVPQLTEYFLNNCYLEELNFRNPLGMKGEIAEAYADLVKQAWSGHHRSIVPHVFKNKVGHFASQFLGYQQHDSQELLSFLLDGLHEDLNRVKKKEYVELCDAAGRPDQEVAQEAWQNHKRRNDSVIVDTFHGLFKSTLVCPDCGNVSVTFDPFCYLSVPLPISHKRVLEVFFIPMDPRRKPEQHRLVVPKKGKISDLCVALSKHTGISPERMMVADVFSHRFYKLYQLEEPLSSILDRDDIFVYEVSGRIEAIEGSREDIVVPVYLRERTPARDYNNSYYGLMLFGHPLLVSVPRDRFTWEGLYNVLMYRLSRYVTKPNSDDEDDGDEKEDDEEDKDDVPGPSTGGSLRDPEPEQAGPSSGVTNRCPFLLDNCLGTSQWPPRRRRKQLFTLQTVNSNGTSDRTTSPEEVHAQPYIAIDWEPEMKKRYYDEVEAEGYVKHDCVGYVMKKAPVRLQECIELFTTVETLEKENPWYCPSCKQHQLATKKLDLWMLPEILIIHLKRFSYTKFSREKLDTLVEFPIRDLDFSEFVIQPQNESNPELYKYDLIAVSNHYGGMRDGHYTTFACNKDSGQWHYFDDNSVSPVNENQIESKAAYVLFYQRQDVARRLLSPAGSSGAPASPACSSPPSSEFMDVN
# B6: IGF2BP2 (protein)
# chain: MMNKLYIGNLSPAVTADDLRQLFGDRKLPLAGQVLLKSGYAFVDYPDQNWAIRAIETLSGKVELHGKIMEVDYSVSKKLRSRKIQIRNIPPHLQWEVLDGLLAQYGTVENVEQVFAFSLVNTDTETAVVNVTYATREEAKIAMEKLSGHQFENYSFKISYIPDEEVSSPSPPQRAQRGDHSSREQGHAPGGTSQARQIDFPLRILVPTQFVGAIIGKEGLTIKNITKQTQSRVDIHRKENSGAAEKPVTIHATPEGTSEACRMILEIMQKEADETKLAEEIPLKILAHNGLVGRLIGKEGRNLKKIEHETGTKITISSLQDLSIYNPERTITVKGTVEACASAEIEIMKKLREAFENDMLAVNQQANLIPGLNLSALGIFSTGLSVLSPPAGPRGAPPAAPYHPFTTHSGYFSSLYPHHQFGPFPHHHSYPEQEIVNLFIPTQAVGAIIGKKGAHIKQLARFAGASIKIAPAEGPDVSERMVIITGPPEAQFKAQGRIFGKLKEENFFNPKEEVKLEAHIRVPSSTAGRVIGKGGKTVNELQNLTSAEVIVPRDQTPDENEEVIVRIIGHFFASQTAQRKIREIVQQVKQQEQKYPQGVASQRSK
# Test system: proteins that co-immunoprecipitated with DUX4-CTD constructs expressed in MB135 myoblasts
# Test: LC-MS of proteins co-immunoprecipitated with DUX4-CTD (Table 1) and western validation
# Type: binding, human
# Set-up: key to 4. mL1dL2 + Dox + IFNG / 4. + IFNG mix / 4. longCTD + Dox + IFNG / 3. + IFNg + Dox longCTD / 3. + Dox longCTD / 3. + IFNG longCTD: peptide-spectrum matches (PSMs) per protein
# Settings: LC-MS value per protein co-immunoprecipitated from MB135 myoblasts; + IFNG mix sample (no Dox); kind of count not given
# Description: As an unbiased method to identify proteins that interact with the C-terminal region of DUX4, liquid chromatography mass spectroscopy (LC-MS) was used to identify proteins that co-immunoprecipitated with DUX4-CTD constructs expressed in MB135 myoblasts. In the first experiment, MB135iDUX4-CTD cells were used, either untreated, treated with doxycycline alone, or with both doxycycline and IFNG. In the second experiment, MB135iDUX4-CTD and MB135iDUX4mL1dL2 cells were used, both treated with doxycycline and IFNG, compared to these two cell lines untreated and combined as a control. Proteins with a minimum of 2 peptide spectrum matches (PSMs) in at least one sample that were identified in both experiments were assigned to one of ten categories (see Methods) to separate candidate interactors from other categories that might be co-purified because of obligate interactions (e.g., proteasome or ribosome) or might be less likely to be physiologically relevant (e.g., cytoskeletal proteins). Candidate interactors were then ranked based on the total PSMs for that protein across all samples.
# Centrifugation at 2500 rcf at 4° C. for 5 min pelleted the nuclei, supernatant was discarded, and nuclei resuspended in 1 mL IP buffer pH 7.4 (25 mM Tris-HCl pH 7.5, 175 mM NaCl, 1 mM EDTA, 0.2% NP-40, 5% glycerol) and incubated for 1 hour at 4° C. with rotation then spun at 21000 rcf for 10 minutes at 4° C. to pellet insoluble debris. Protein concentration was determined using the Pierce BCA Protein Assay Kit (ThermoFisher, 23225). An equivalent amount of protein per sample was pre-cleared with Dynabeads Protein G (Invitrogen) bound to mouse IgG (Abcam #131368) for 1 hour at 4° C. with rotation. FLAG-tagged constructs were then immunoprecipitated with Dynabeads Protein G beads coupled to mouse anti-FLAG M2 mAb (Sigma F3165) for 3 hours at 4° C. with rotation. Beads were washed 3× with 1 mL IP buffer and eluted by adding 2× NuPage LDS Sample Buffer (Thermo Fisher, diluted from 4× with PBS) to the beads and heating for 10 minutes at 70° C.
# For LC-MS, anti-FLAG immunoprecipitation was performed with beads cross-linked to the anti-FLAG antibody and the proteins competitively eluted with FLAG peptide. Eluted protein samples were electrophoresed into a NuPage 4-12% Bis-Tris gel, excised, and processed by the Fred Hutchinson Cancer Research Center Proteomics Core. Samples were reduced, alkylated, digested with trypsin, desalted, and run on the Orbitrap Eclipse Tribid Mass Spectrometer (Thermo Fisher). Proteomics data were analyzed using Proteome Discoverer 2.4 against a Uniprot human database that included common contaminants using Sequest HT and Percolator for scoring. […] Proteins that were identified in at least one sample from both independent experiments with at least 2 PSMs in one sample were assigned to one of ten categories: 1, candidates; 2, cytoskeletal associated; 3, cytoskeletal; 4, ribosome/translation associated; 5, proteasome associated; 6, membrane or extracellular; ER, golgi, or vesicle associated; 8, lipid metabolism; 9, chaperones; 10, nuclear import or nuclear membrane associated. The proteins in category 1 were further investigated for interactions with DUX4.
row,Molecule,4. + IFNG mix
1,B1,1
2,B2,3
3,B3,24
4,B4,2

# Same assay, conditions: LC-MS value per protein co-immunoprecipitated with DUX4-CTD construct mL1dL2 in MB135 myoblasts; + Dox + IFNG; kind of count not given
row,Molecule,4. mL1dL2 + Dox + IFNG
1,B1,1
2,B5,1
3,B2,18
4,B3,19
5,B6,1
